Data reported in a protein production outcome set (Wang et al. 2014).

Assay: label from the status in PepcDB records

For “MPQTSSVFRYPGGKTQLYSFVHHLLKINSITDISLEPFAGGAGIPLKLLIDNRINTVWINDYDKAIYSVWDTILNDPVALISLIESVPFDYHSGHKISPEFSISFWKKQKDIYLNNKNHQHSIELAFSTLFLNRTNTSGIITAGPLGGFKQNRKTQIYARFNKETLINKINLIHSFKSQIKLTRLNTLDMIPKIRNSVDPKNSFIFFDPPYFEQGKELYYSSFNEQGHKELANGILSLKQYHWITTYDTAPQIQEDYTMAKQKYEYSLNYSANNKNRGKTAEFMFASPVTRLSSFEKVDLTPLA”, the protein production was “failed”.

With “MPQWRVRMHSGGLELALVLMLAAIVAVPVFKRFGLGAVLAYLVAGVVLGPDGAGVVQDAERISGAAEIGVVMLLFVIGLELSPARLKVMRHSVFGAGATQVLVTAVILGGLLMAAQLGWKSALIVGVALALSSTAVGLQLLAERKALSSDYGRLAFAILLFQDLIAIPLLAAIPLLGGSKNATLQWQDVAKAVAALALVIVCGRFVLRHLFNVVARTRMPEVFTASALLVVLGTAWIMQEAGLSASLGAFIAGVLLADSEFRHELESQIEPFEGLLLGLFFISVGMGIDLHRVVAEPWLIAAGVAILLVVKFSLLVGIGSVAKLPLRSSLMLGSVLWLGGEFAFVVFNEADRVGLLEPANHDRLVAIVGVSMALTPLLLLGMQRILNGPLRARAPKTDRPFDTIDAQTPKVLVAGMGRFGQVVARLLTARHVPFVALEHNPDTVEDLRRFGSQLYYGDPTRPELLRAAGAERIKVFVIAVDDPETNIKTVRLIRRLYPQATVLARARNRQHAWKLMDLGAEPFREVFASSLELSERVLTSLGLGEALAHDHVKRFRQHDEDLLRRQHLVYDDEAKVIQTSRDARADLMNLFEADVRADVDGEPAPTLRER” the protein production was “failed”.

For “MPRLAISRLWPMLTAVALLSPLATAQQGQTLRAGELTVTLTPTQPDSNGWYRAGRLELQGTDEGIRGVETSRLRGAVLGELSPDGRWLSVLGTGGGYVQLWNVATAERQFTFLAHDKKSYDARLAAFSPDSRRLVFYSYPNELSLWDTATGVRVKLLSDVRKGGWWTADADAVFSPDGKTFVVTGGGGGAQLFDTRTGDLLQTFDRPCQSFGPGSPGGFWRGAVGATFSADGKNVAVLYAGGAARLYGVAGAGALAKASWKLDNFKPSQMRFWAGKLTLNGRELSGKTPNGLSFTLTF”, the protein production was “failed”.

With “MPRVDHGSPQAGPPAPCVGILLAGGQGRRFAAASGGQDKLLARLADGTAVAVRAAAALREATDAVVAVVRPESAVLAALLRGQGCHVLESEQAREGMGASLAAAARFLLAGQVPDMPERADVCLVALADMPWVRRDTLSAVRAAACADGITVPVHQGRRGHPVAFGRSLWGELAALRGDVGARELLRRHRVAAVEVDDPGVAADVDTPGDLAGDRALEHHHHHH” the protein production was “failed”.

In the case of “MPRYQATLLIELKKGILDPQGRAVEGVLKDLGHPVEEVRVGKVLEIVFPAENLLEAEEKAKAMGALLANPVMEVYALEALKELP”, the protein production is reported as “not failed”.

For “MPSAEISSSTEAKQAATTVDVSYKTHVQTFGWQDWAANGASAGTTGLAKRLEAIQIKTSAPASQGGIRYRTHVQTYGWLDWVSDGASSGTTGEAKRLEAIQIELTGALATQYDVYYRVHAQTFGWLDWACNGASAGSAGYAKRLEAIQIVLVPKGGKAPGSTAAPYKELPPAVSYQSYLSGAWQNSVLDNAVSGTVGQAKQIEGIKISLQDKAVSFAGSSIQYRTYLQTYAWQDWTSNGGTSGKPGSGKRVEAVQIKLTGSIASSYDVYYRVHSQTFGWLDWACNGQSAGSAGYAKRIEAIQIVLVKKGGAAPGSTATPYKEAPPSVTYQTYISGGWQPTVADKATSGLAGQGKKTEGLRVSLKAGAQSLGNSSVKYRTYLQTYGWQSWVSNGASSAKAGSGKRMEAIEISLTGDISSQYDIYYRSYVTGYGWLGWACNGATSGTTDYAKPIEAVQAVLVKKGGAAPGSTSNAYLKPEVTGPFEISFSPSGASNFGGLVSIEPDHDVILVASAKGGAGGYQYRYRAELIGGSIQTLKDYSGSSSYTWRPNTPGRYKMYVDVKDSTGTVKTAMFQMSVGLSGIDVSEHQGTIDWKKVKAAGIDYAMIRAGFGWEEIDDQTDASLVQNVTGAKQAGLPFGLYHYSYADTVEEAKKEAEFLLDILEANNIAPSDLSYPIAFDIEEPDRLNVSQRRVNTDMVNAFCEIIRDAGYLPMVYASKTVIQDYLYYDEISANNIWMAAWTSTPNDTEIFDNCFPVDMWQYSESGTVDGINGRVDLNICYTTVFRDGSADTTQKGKVVVDAGSSLNVRKAPSVNADVVGSLYKDDIVTIISETSGWYQIVTSTGVSGYVSAEYIQKI”, the protein production was “failed”.

With “MPSEKEILDALSKVYSEQVIQADDYFRQAIFELASQLEKEGMSSLLATKIDSLINQYILTHQFDAPKSIFDLSRLVKTKASHYKGTAISAIMLGSFLSGGPK” the protein production was “not failed”.

With “MPSGQEGLDKFHNLNKGKTMFMQRLITTLILVPLVLLAIFYAPSWILWGVVLVILLLAGMECFKLIPVDNLTVQACFLIFLLMCFWACGYFYSYWLSVGLLVWLLNGLAILTYPRSQNYWGYPIVVAIASLILLPLFTQSLMQISFLQQGKELLVYLLFLIWASDIGAYLTGKQWGKHKLIPKVSPGKSWEGVTGGVILAMIVATLGYYYFIPYSIYIWFGLALSTVVISIFGDLFISILKRRCQLKDTGNIIPGHGGILDRLDSLIAALPWFYFGLTYIPLGI” the protein production was “failed”.

With “MPSIKIRENEPFEIAIRRFKRACEKAGVLSEVRRREYYEKPTEERKRKAAAAIKRHLKKLSRERFALQNLRKGRPQQLEHHHHHH” the protein production was “not failed”.

In the case of “MPSKQDVLLLDYWDQWAEAYRINGKSINTVYRYKLFRKHLKSRFDGRKLNSIRPIEWQKFINDFAAGKDRKEKTTRKRPRERSKDIVTKMNSYVRGMVKAAINERILFSDFTFGTKTSGVRSSGKVKVLEHHHHHH”, the protein production is reported as “not failed”.

With “MPSLCKLNPCIQTHKEVIMDNLITQLLFSASITGPICVMLLLGVLLKRIHLINDNFIEVASKLVFQVTLPAMLFLSIVNAKHDFSSSSHLIIYGLIANFVFFLFTIYSTRFAFKNKQNHGVIIQGGFRANTAIIALAYVANAYGNTGVALAAIYVASTTILYNIQAVIALTPKNENNKKQAVGIIIKTLTKNPLIISIVLGIICSLLSIPVPGMLSQAGQYFANMTLPLALLCAGGSLNLHSMKEESAATWFATSYKLILSPLFITSGGILVGFRGLELGLIFFMSAAPTAAASYVMARAMGGNAILAANIIAQTTVASLFTCTLGIFVLSSFNLI” the protein production was “failed”.

With “MPSLGEAPQDLQRSQERRRIERIFAQGGKGVASPHRFPGPLPMLQNIPTHVIAGPLGAGKTSLIRHLLSQRPAAERWAVLINEFGQIGLDAALLTRDEDGIALGEVAGGCLCCVNGAPFQVGLGRLLRKARPDRLLIEPSGLGHPAQLLKQLNEAPWKGVLAVQPCVLVLDAQALAAGKPLPRAQQDALSSAGLLVLNKDELLSDSDRLRVLEQLPDLPLFWTRHAALPLAELPGLGASAEAALEQSDIPQGLAQLPAVWSDPTLPICLSQSQEDGWSIGWRWHPSQQFDLVRVEHWLQNLDWRRAKLVLHSDQGWRSGNGLDNSPLNWLPSEWRRDSRLELIFSSPQDIAVLQASLDACRLLEHHHHHH” the protein production was “failed”.

In the case of “MPSLPDRRRWLLDGARDTVPMMVGAAPFGLIFGTLAIAAGLSPAATAAMSLLVFAGSSQFIAVSLVSAGAALPVIWLTTFVVNLRHALYSATLLPYARPWPLAWRWPLAFWLTDETFAVVEHRFRSLGAEGGQWYWLGSSLSMYLNWQLWTLAGVALGRSVPGLDRLGLDFAMVATFAAIVAPQLKKRPTLAAALAAGAVALLARGLPYKLDLMLAALAGVAAGMMVERGQKREAA”, the protein production is reported as “failed”.

With “MPSLSVRGSLLLVCALAVTGCASLQSQDQINYAHCRMVGQASKAEKFDVVLQEADLCLEKNQLSQPMQSLVYWLKSDAYASFKRYPEAIAAKEKSIELGPKPDARAVLDLSRLYREAGNPQKALELVQSNLDNNLGEAGKGSGFNMPTYYHLGQTLYDLGRYREAAEAYSTGLLKQPDYAWAFYHRGLAYDKLGQTDDARADFAQFAKLVNQKYVEPQHQAKLAEYKIKLP” the protein production was “failed”.

For “MPSPSGGWGCGGTWARGVDGARLFSIHHQAVRPNLSTISPPKEPPMIEVRHLCKSFARKPAVQDISFSIPAGEIVGYLGPNGAGKSTTIKVLTGLLVPDSGEVRVGGLVPWKQRRQHVARLGAVFGQRTTLWWDLPVRESLELLRHVYRVPAARFAENLAGFTELLELGPFLNTPARALSLGQRMRADLAAALLHDPELLFLDEPTVGLDVVAKERIREFVKAVNAERGVTVLLTTHDLGDVERLARRVMMIDTGRLLFDGPLAELQARYGGERELWVEFEKAPAQPALPGLTLLGQDGPRVRYGFSGAAAAPIAQVTALAPVRDLAVKEPEVEATIRRIYEGNLLGSRSVREGLEHHHHHH”, the protein production was “failed”.
